# Laboratory results from US11814435B2, “Therapeutic antibodies and their uses” (PFIZER INC., priority 2015, dated 2023).
# T1: hBCMA (human BCMA) (Homo sapiens, UniProt Q02223)
# T1 sequence (Q02223 1-184): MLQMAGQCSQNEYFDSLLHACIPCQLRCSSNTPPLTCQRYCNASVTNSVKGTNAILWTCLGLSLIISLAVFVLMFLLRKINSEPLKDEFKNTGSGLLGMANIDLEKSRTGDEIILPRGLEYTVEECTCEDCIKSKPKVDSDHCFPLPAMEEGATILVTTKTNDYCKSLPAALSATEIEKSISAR
# Tests used:
# cyBCMA = assay: Kinetics and affinity of cyBCMA/human IgG interactions by SPR (Bio-Rad Proteon XPR36); format: binding, cynomolgus; settings: 37° C.
# hBCMA (human BCMA) = biological target: T1, hBCMA (human BCMA); assay: Kinetics and affinity of hBCMA/human IgG interactions by SPR (Bio-Rad Proteon XPR36); format: binding; settings: huBCMA, 37° C.
# How it was run: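 IgG amine-coupled (20 μg/mL, acetate pH 4.5), GLC chip. hBCMA 0.08–50 nM, 5-fold steps, low→high, 2 min assoc., 2 h dissoc. after top conc. HBS-T+ + 1 mg/mL BSA, 37° C. or 25° C. Buffer-blank double referencing; 1:1 Langmuir with mass transport fit.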
Molecule,kd (1/s) cyBCMA @37° C. (cyBCMA) [s⁻¹],ka (1/Ms) huBCMA @ 37° C. (hBCMA (human BCMA)) [M⁻¹ s⁻¹],kd (1/s) huBCMA @37° C. (hBCMA (human BCMA)) [s⁻¹],ka (1/Ms) cyBCMA @ 37° C. (cyBCMA) [M⁻¹ s⁻¹]
"L3.PY/L1.AH/H2.DY: anti-BCMA antibody (antibody, V domains shown) VH: EVQLLESGGGLVQPGGSLRLSCAASGFTFGSYAMTWVRQAPGKGLEWVSAIDYSGGNTFYADSVKGRFTISRDNSKNTLYLQMNSLRAEDTAVYYCARVSPIASGMDYWGQGTLVTVSS VL: EIVLTQSPGTLSLSPGERATLSCRASQSVSAHYLAWYQQKPGQAPRLLIYGASSRATGIPDRFSGSGSGTDFTLTISRLEPEDFAVYYCQHYPYPPSFTFGQGTKVEIK",0.00451,3.05e+06,0.00152,2.32e+06
"L3.PY/L1.AH/H2.HA: anti-BCMA antibody (antibody, V domains shown) VH: EVQLLESGGGLVQPGGSLRLSCAASGFTFGSYAMTWVRQAPGKGLEWVSAISHAGGNTFYADSVKGRFTISRDNSKNTLYLQMNSLRAEDTAVYYCARVSPIASGMDYWGQGTLVTVSS VL: EIVLTQSPGTLSLSPGERATLSCRASQSVSAHYLAWYQQKPGQAPRLLIYGASSRATGIPDRFSGSGSGTDFTLTISRLEPEDFAVYYCQHYPYPPSFTFGQGTKVEIK",0.00439,3.33e+06,0.00181,2.58e+06
"L3.PY/L1.FF/H2.QR: anti-BCMA antibody (antibody, V domains shown) VH: EVQLLESGGGLVQPGGSLRLSCAASGFTFGSYAMTWVRQAPGKGLEWVSAISGSGGNTFYADQRKGRFTISRDNSKNTLYLQMNSLRAEDTAVYYCARVSPIASGMDYWGQGTLVTVSS VL: EIVLTQSPGTLSLSPGERATLSCRASQSVSSFFLAWYQQKPGQAPRLLIYGASSRATGIPDRFSGSGSGTDFTLTISRLEPEDFAVYYCQHYPYPPSFTFGQGTKVEIK",0.00421,3.47e+06,0.00177,2.55e+06
"L3.PY/L1.FF/H2.HA: anti-BCMA antibody (antibody, V domains shown) VH: EVQLLESGGGLVQPGGSLRLSCAASGFTFGSYAMTWVRQAPGKGLEWVSAISHAGGNTFYADSVKGRFTISRDNSKNTLYLQMNSLRAEDTAVYYCARVSPIASGMDYWGQGTLVTVSS VL: EIVLTQSPGTLSLSPGERATLSCRASQSVSSFFLAWYQQKPGQAPRLLIYGASSRATGIPDRFSGSGSGTDFTLTISRLEPEDFAVYYCQHYPYPPSFTFGQGTKVEIK",0.00417,3.49e+06,0.00219,2.33e+06
"L3.PY/L1.AH/H3.AE: anti-BCMA antibody (antibody, V domains shown) VH: EVQLLESGGGLVQPGGSLRLSCAASGFTFGSYAMTWVRQAPGKGLEWVSAISGSGGNTFYADSVKGRFTISRDNSKNTLYLQMNSLRAEDTAVYYCARVSPIAAEMDYWGQGTLVTVSS VL: EIVLTQSPGTLSLSPGERATLSCRASQSVSAHYLAWYQQKPGQAPRLLIYGASSRATGIPDRFSGSGSGTDFTLTISRLEPEDFAVYYCQHYPYPPSFTFGQGTKVEIK",0.00356,3.32e+06,0.00173,2.25e+06
"L3.PY/L1.FF/H2.YQ: anti-BCMA antibody (antibody, V domains shown) VH: EVQLLESGGGLVQPGGSLRLSCAASGFTFGSYAMTWVRQAPGKGLEWVSAISYQGGNTFYADSVKGRFTISRDNSKNTLYLQMNSLRAEDTAVYYCARVSPIASGMDYWGQGTLVTVSS VL: EIVLTQSPGTLSLSPGERATLSCRASQSVSSFFLAWYQQKPGQAPRLLIYGASSRATGIPDRFSGSGSGTDFTLTISRLEPEDFAVYYCQHYPYPPSFTFGQGTKVEIK",0.00326,3.32e+06,0.00152,2.19e+06
"L3.PY/L1.FF/H2.LT: anti-BCMA antibody (antibody, V domains shown) VH: EVQLLESGGGLVQPGGSLRLSCAASGFTFGSYAMTWVRQAPGKGLEWVSAISLTGGNTFYADSVKGRFTISRDNSKNTLYLQMNSLRAEDTAVYYCARVSPIASGMDYWGQGTLVTVSS VL: EIVLTQSPGTLSLSPGERATLSCRASQSVSSFFLAWYQQKPGQAPRLLIYGASSRATGIPDRFSGSGSGTDFTLTISRLEPEDFAVYYCQHYPYPPSFTFGQGTKVEIK",0.00341,3.3e+06,0.00167,2.19e+06
"L3.PY/L1.AH/H3.YA: anti-BCMA antibody (antibody, V domains shown) VH: EVQLLESGGGLVQPGGSLRLSCAASGFTFGSYAMTWVRQAPGKGLEWVSAISGSGGNTFYADSVKGRFTISRDNSKNTLYLQMNSLRAEDTAVYYCARVSPIYAGMDYWGQGTLVTVSS VL: EIVLTQSPGTLSLSPGERATLSCRASQSVSAHYLAWYQQKPGQAPRLLIYGASSRATGIPDRFSGSGSGTDFTLTISRLEPEDFAVYYCQHYPYPPSFTFGQGTKVEIK",0.00526,3e+06,0.0015,2.37e+06
"L3.PY/L1.FF/H2.DY: anti-BCMA antibody (antibody, V domains shown) VH: EVQLLESGGGLVQPGGSLRLSCAASGFTFGSYAMTWVRQAPGKGLEWVSAIDYSGGNTFYADSVKGRFTISRDNSKNTLYLQMNSLRAEDTAVYYCARVSPIASGMDYWGQGTLVTVSS VL: EIVLTQSPGTLSLSPGERATLSCRASQSVSSFFLAWYQQKPGQAPRLLIYGASSRATGIPDRFSGSGSGTDFTLTISRLEPEDFAVYYCQHYPYPPSFTFGQGTKVEIK",0.005,4.14e+06,0.00271,2.66e+06
"L3.PY/L1.AH/H2.QL: anti-BCMA antibody (antibody, V domains shown) VH: EVQLLESGGGLVQPGGSLRLSCAASGFTFGSYAMTWVRQAPGKGLEWVSAISGSGGNTFYADQLKGRFTISRDNSKNTLYLQMNSLRAEDTAVYYCARVSPIASGMDYWGQGTLVTVSS VL: EIVLTQSPGTLSLSPGERATLSCRASQSVSAHYLAWYQQKPGQAPRLLIYGASSRATGIPDRFSGSGSGTDFTLTISRLEPEDFAVYYCQHYPYPPSFTFGQGTKVEIK",0.00955,3.04e+06,0.0016,2.62e+06

# Further lines, with some results ahead:
kd (1/s) cyBCMA @37° C. (cyBCMA) [s⁻¹],ka (1/Ms) huBCMA @ 37° C. (hBCMA (human BCMA)) [M⁻¹ s⁻¹],kd (1/s) huBCMA @37° C. (hBCMA (human BCMA)) [s⁻¹],Molecule,ka (1/Ms) cyBCMA @ 37° C. (cyBCMA) [M⁻¹ s⁻¹]
0.00296,3.16e+06,0.00123,"L3.PY/L1.AH/H2.LT: anti-BCMA antibody (antibody, V domains shown) VH: EVQLLESGGGLVQPGGSLRLSCAASGFTFGSYAMTWVRQAPGKGLEWVSAISLTGGNTFYADSVKGRFTISRDNSKNTLYLQMNSLRAEDTAVYYCARVSPIASGMDYWGQGTLVTVSS VL: EIVLTQSPGTLSLSPGERATLSCRASQSVSAHYLAWYQQKPGQAPRLLIYGASSRATGIPDRFSGSGSGTDFTLTISRLEPEDFAVYYCQHYPYPPSFTFGQGTKVEIK",2.19e+06
0.00449,3.48e+06,0.0014,"L3.PY/L1.FF/H2.QL: anti-BCMA antibody (antibody, V domains shown) VH: EVQLLESGGGLVQPGGSLRLSCAASGFTFGSYAMTWVRQAPGKGLEWVSAISGSGGNTFYADQLKGRFTISRDNSKNTLYLQMNSLRAEDTAVYYCARVSPIASGMDYWGQGTLVTVSS VL: EIVLTQSPGTLSLSPGERATLSCRASQSVSSFFLAWYQQKPGQAPRLLIYGASSRATGIPDRFSGSGSGTDFTLTISRLEPEDFAVYYCQHYPYPPSFTFGQGTKVEIK",2.36e+06
0.00431,2.42e+06,0.00193,"L3.PY/L1.AH/H2.YQ: anti-BCMA antibody (antibody, V domains shown) VH: EVQLLESGGGLVQPGGSLRLSCAASGFTFGSYAMTWVRQAPGKGLEWVSAISYQGGNTFYADSVKGRFTISRDNSKNTLYLQMNSLRAEDTAVYYCARVSPIASGMDYWGQGTLVTVSS VL: EIVLTQSPGTLSLSPGERATLSCRASQSVSAHYLAWYQQKPGQAPRLLIYGASSRATGIPDRFSGSGSGTDFTLTISRLEPEDFAVYYCQHYPYPPSFTFGQGTKVEIK",1.58e+06
0.00302,3.27e+06,0.00119,"L3.PY/L1.AH/H3.TAQ: anti-BCMA antibody (antibody, V domains shown) VH: EVQLLESGGGLVQPGGSLRLSCAASGFTFGSYAMTWVRQAPGKGLEWVSAISGSGGNTFYADSVKGRFTISRDNSKNTLYLQMNSLRAEDTAVYYCTRVSPIAAQMDYWGQGTLVTVSS VL: EIVLTQSPGTLSLSPGERATLSCRASQSVSAHYLAWYQQKPGQAPRLLIYGASSRATGIPDRFSGSGSGTDFTLTISRLEPEDFAVYYCQHYPYPPSFTFGQGTKVEIK",2.28e+06
